Reference: patent US20230192860A1 (Bristol-Myers Squibb, published 2023)
Changes are numbered by the printed parent chain. Names may count otherwise.

B1: P1-070914 (P1-068767_E30D_D52N) (antibody, human IgG1, kappa, V domains shown)
VH: EVQLVESGGGLVQPGKSLRLSCAASGFTLDDYAMHWVRQAPGKGLEWVSGINWNSENIGYADSVKGRFTISRDNAKNSLYLQMNSLRTEDTALYYCAKVPGYSGGWIDAEDDWGQGTMVTVSS
VL: not shown
notes: also called P1-070914-3
B2: P1-070916 (P1-068767_D52N_E55A) (antibody, human IgG1, kappa, V domains shown)
VH: B1 VH with D30E, E56A
VL: not shown
notes: also called P1-070916-6
B3: P1-070922 (P1-068767_E30D_E55A) (antibody, human IgG1, kappa, V domains shown)
VH: B1 VH with N52D, E56A
VL: not shown
notes: also called P1-070922-3
B4: P1-061015 (antibody, human IgG1, kappa, V domains shown)
VH: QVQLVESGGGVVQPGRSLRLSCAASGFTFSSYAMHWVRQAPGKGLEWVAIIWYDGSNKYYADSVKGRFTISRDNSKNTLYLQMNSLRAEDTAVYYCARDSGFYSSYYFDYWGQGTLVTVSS
VL: EIVLTQSPATLSLSPGERATLSCRASQSVSSSYLAWYQQKPGQAPRLLIYDASNRATGIPARFSGSGSGTDFTLTISSLEPEDFATYYCQQYNSYPYTFGQGTKLEIKR
notes: also called P1-061015.IgG1.3
B5: P1-068744 (antibody, human IgG1, kappa, V domains shown)
VH: QVQLVESGGGVVQPGRSLRLSCAASGFTFSEYAMHWVRQAPGKGLEWVAHIWYDGSNKYEADSVKGRFTISRDNSKNTLYLQMNSLRAEDTAVYYCARDSGFYESYYFDEWGQGTLVTVSS
VL: B4 VL
notes: also called P1-068744-7
B6: P1-068748 (antibody, human IgG1, kappa, V domains shown)
VH: B5 VH with E31H, Y32H, H50I, K58D, Y59D, E60Y, E104D, E110Y
VL: B4 VL
notes: also called P1-068748-6
B7: P1-061520 (41F11 VK_A64G) (antibody, V domains shown)
VH: QVQLVESGGGLVKPGGSLRLSCAASGFTFSDYYMSWIRQAPGKGLEWVSYISNSGSPIYYADSVKGRFTISRDNAKNSLYLQMNSLRAEDTAVYYCARDLPGWYFDLWGRGTLVTVSS
VL: EIVLTQSPATLSLSPGERATLSCRASQSVSSYLAWYQQKPGQAPRLLIYDASNRATGIPARFSGSGSGTDFTLTISSLEPEDFAVYYCQQRNNWPRTFGQGTKVEIK
notes: also called P1-061520-21; VISTA.4.A64G
B8: P1-070976 (41F11_VH_T28P_Y50W_S55E_D95H_L96E_P97E_Y100E; Vk_A64G) (antibody, V domains shown)
VH: B7 VH with T28P, Y50W, S56E, D99H, L100E, P101E, Y104E
VL: B7 VL
notes: They look like Kabat positions on the mature VH, but no numbering scheme is stated; also called P1-070976-11
B9: P1-077875 (P1-068748 H31S H32Y) (antibody, V domains shown)
VH: B5 VH with E31S, H50I, K58D, Y59D, E60Y, E104D, E110Y
VL: EIVLTQSPATLSLSPGERATLSCRASQSVSSSYLAWYQQKPGQAPRLLIYDASNRATGIPARFSGSGSGTDFTLTISSLEPEDFATYYCQQYNSYPYTFGQGTKLEIK
B10: P1-077865 (P1-068748 H31S) (antibody, V domains shown)
VH: B5 VH with E31S, Y32H, H50I, K58D, Y59D, E60Y, E104D, E110Y
VL: B9 VL
B11: P1-077877 (P1-068748 H32Y D57K) (antibody, V domains shown)
VH: B5 VH with E31H, H50I, Y59D, E60Y, E104D, E110Y
VL: B9 VL
notes: the sister clones carry the VL of P1-061015
B12: P1-077867 (P1-068748 H32Y) (antibody, V domains shown)
VH: B5 VH with E31H, H50I, K58D, Y59D, E60Y, E104D, E110Y
VL: B9 VL
B13: P1-077869 (P1-068748 D57K) (antibody, V domains shown)
VH: B5 VH with E31H, Y32H, H50I, Y59D, E60Y, E104D, E110Y
VL: B9 VL
B14: P1-077883 (P1-068748 H31S D57K) (antibody, V domains shown)
VH: B5 VH with E31S, Y32H, H50I, Y59D, E60Y, E104D, E110Y
VL: B9 VL

The binders below were run against T1, hVISTA-ECD 6-His tag (human, UniProt Q9H7M9 33-193) (assay: SPR; KD at pH 6.45 over KD at pH 6.0 (head prints 7.4)).
T1 construct: also called monovalent hVISTA-ECD; human VISTA
T1 sequence (Q9H7M9 other isoform, or with tags, fused parts or gaps limits assumed): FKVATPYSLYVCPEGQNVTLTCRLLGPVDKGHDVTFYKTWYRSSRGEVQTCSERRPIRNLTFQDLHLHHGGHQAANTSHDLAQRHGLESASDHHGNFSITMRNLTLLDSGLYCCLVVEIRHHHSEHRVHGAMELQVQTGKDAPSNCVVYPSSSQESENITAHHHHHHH
In the case of B1, the “7.4 KD/ 6.0 KD” value is reported as 4.3. With B2 the “7.4 KD/ 6.0 KD” value was 5.4. B3 was tested, and the “7.4 KD/ 6.0 KD” value was 4.4. In the case of B4, the “7.4 KD/ 6.0 KD” value is reported as 2.9. In the case of B5, the “7.4 KD/ 6.0 KD” value is reported as 12.6. In the case of B6, the “7.4 KD/ 6.0 KD” value is reported as 4.1. With B7 the “7.4 KD/ 6.0 KD” value was 0.3. For B8, the “7.4 KD/ 6.0 KD” value was 4.4.

These binders were tested against T1, hVISTA-ECD 6-His tag (assay: SPR; kd at pH 6.9 over kd at pH 6.0 (head prints 7.4)).
Protocol: (§1) Further binding kinetic experiments were performed at various pHs on VISTA antibodies described herein by SPR as generally described in Example 9 above. Antibodies were normalized to 50 nM concentration in PBST pH 7.4 and captured on a Protein A CM5 chip (ID 4931) by injecting for 45 seconds at a 5 µL/min flow rate. An 8-point human VISTA titration ([…]) was prepared in PBST at pH 7.4, 6.9, 6.45, and 6.0. Titrations were injected over the captured antibodies for 180 seconds at 30 µL/min. Sensorgrams were fit to a 1:1 binding model in T200 evaluation software and the kinetic constants were reported.
(§2) Each table reports the data at one of the four tested pHs (7.4, 6.9, 6.45, and 6.0, respectively). The 8-point hVISTA titration used in these assays was chosen to provide increased confidence in kinetic values reported at neutral pH conditions. A relatively stringent cutoff for non-binding was applied in this assay. Certain progeny of P1-061029 antibody (P1-068757, ‘759, ‘765, ‘771, and ‘775) show no binding to hVISTA at micromolar concentrations at pH 7.4, while ‘761 and ‘767 show no binding to hVISTA at 100 nM at pH 7.4 but do show binding to hVISTA at micromolar concentrations.
With B1 the “7.4 kd/ 6.0 kd” value was 4.4. With B2 the “7.4 kd/ 6.0 kd” value was 4.8. For B3, the “7.4 kd/ 6.0 kd” value was 3.4. B4 was tested, and the “7.4 kd/ 6.0 kd” value was 0.9. B5 was tested, and the “7.4 kd/ 6.0 kd” value was 7.9. B6 was tested, and the “7.4 kd/ 6.0 kd” value was 4.8. For B7, the “7.4 kd/ 6.0 kd” value was 0. In the case of B8, the “7.4 kd/ 6.0 kd” value is reported as 4.4.

Each binder was assayed against T1, hVISTA-ECD 6-His tag (assay: SPR 37 C, Ab on Protein A, pH 6.0).
Binder B4 has a Kd of 1.9 nM, a koff of 0.0016 s⁻¹ and a kon of 830000 M⁻¹ s⁻¹. B5 was tested, and the Kd was 20 nM, the koff was 0.0046 s⁻¹ and the kon was 230000 M⁻¹ s⁻¹.

Each binder was assayed against T1, hVISTA-ECD 6-His tag (assay: SPR 37 C, Ab on Protein A, pH 7.4).
B4 gave a Kd of 6.4 nM, a koff of 0.0022 s⁻¹ and a kon of 340000 M⁻¹ s⁻¹. With B5 the Kd was 1100 nM, the koff was 0.036 s⁻¹ and the kon was 35000 M⁻¹ s⁻¹.

The binders below were run against T1, hVISTA-ECD 6-His tag (assay: SPR, Ab on Protein A, hVISTA analyte, pH 6.45).
B1 showed a Kd of 46 nM, a koff of 0.0049 s⁻¹ and a kon of 110000 M⁻¹ s⁻¹. With B2 the Kd was 35 nM, the koff was 0.004 s⁻¹ and the kon was 120000 M⁻¹ s⁻¹. In the case of B3, the Kd is reported as 76 nM, the koff is reported as 0.007 s⁻¹ and the kon is reported as 93000 M⁻¹ s⁻¹. In the case of B4, the Kd is reported as 1.83 nM, the koff is reported as 0.00147 s⁻¹ and the kon is reported as 803000 M⁻¹ s⁻¹. B5 showed a Kd of 64 nM, a koff of 0.014 s⁻¹ and a kon of 220000 M⁻¹ s⁻¹. For B6, the Kd was 18 nM, the koff was 0.012 s⁻¹ and the kon was 680000 M⁻¹ s⁻¹. B7 showed a Kd of 5.69 nM, a koff of 0.00554 s⁻¹ and a kon of 975000 M⁻¹ s⁻¹. Binder B8 has a Kd of 44 nM, a koff of 0.0039 s⁻¹ and a kon of 90000 M⁻¹ s⁻¹.

What follows are binders tested against T2, monovalent hVISTA-ECD (amino acids 32-193 of SEQ ID NO: 1 with a 7xHis tail) (human, UniProt Q9H7M9 33-193) (assay: SPR 37C, Ab on Protein A, pH 6.0).
T2 construct: analyte of the SPR assays; also called huVISTA-His; human VISTA-ECD
T2 sequence (Q9H7M9 other isoform, or with tags, fused parts or gaps limits assumed): as above
B9 was tested, and the “fold improvement of off-rate against the '748 antibody” value (“fold improvement of off-rate” below) was at most 2 fold. In the case of B10, the “fold improvement of off-rate” value is reported as at most 2 fold. B11 was tested, and the “fold improvement of off-rate” value was at most 2 fold. In the case of B12, the “fold improvement of off-rate” value is reported as at most 2 fold. For B13, the “fold improvement of off-rate” value was at most 2 fold. With B14 the “fold improvement of off-rate” value was at most 2 fold.

Each binder was assayed against T1, hVISTA-ECD 6-His tag (assay: SPR, Ab on Protein A, hVISTA analyte, pH 6.0).
B1 was tested, and the Kd was 11 nM, the koff was 0.0024 s⁻¹ and the kon was 230000 M⁻¹ s⁻¹. Work on B2 yielded a Kd of 6.5 nM, a koff of 0.0019 s⁻¹ and a kon of 300000 M⁻¹ s⁻¹. Work on B3 yielded a Kd of 17 nM, a koff of 0.004 s⁻¹ and a kon of 230000 M⁻¹ s⁻¹. B4 showed a Kd of 0.622 nM, a koff of 0.00154 s⁻¹ and a kon of 2.47e+06 M⁻¹ s⁻¹. With B5 the Kd was 5.1 nM, the koff was 0.0043 s⁻¹ and the kon was 860000 M⁻¹ s⁻¹. For B6, the Kd was 4.3 nM, the koff was 0.0036 s⁻¹ and the kon was 840000 M⁻¹ s⁻¹. B7 showed a Kd of 16.8 nM, a koff of 0.0323 s⁻¹ and a kon of 1.93e+06 M⁻¹ s⁻¹. In the case of B8, the Kd is reported as 9.9 nM, the koff is reported as 0.0023 s⁻¹ and the kon is reported as 240000 M⁻¹ s⁻¹.

The binders below were run against T1, hVISTA-ECD 6-His tag (assay: SPR; KD at pH 6.9 over KD at pH 6.0 (head prints 7.4)).
Protocol: as §1, §2
B1 was tested, and the “7.4 KD/ 6.0 KD” value was 21.1. In the case of B2, the “7.4 KD/ 6.0 KD” value is reported as 35.1. For B3, the “7.4 KD/ 6.0 KD” value was 45.9. For B4, the “7.4 KD/ 6.0 KD” value was 5.1. With B5 the “7.4 KD/ 6.0 KD” value was 958. B6 was tested, and the “7.4 KD/ 6.0 KD” value was 50. In the case of B7, the “7.4 KD/ 6.0 KD” value is reported as 0.1. B8 was tested, and the “7.4 KD/ 6.0 KD” value was 98.2.

What follows are binders tested against T1, hVISTA-ECD 6-His tag (assay: SPR; kd at pH 6.45 over kd at pH 6.0 (head prints 7.4)).
Protocol: as §1, §2
B1 was tested, and the “7.4 kd/ 6.0 kd” value was 2. In the case of B2, the “7.4 kd/ 6.0 kd” value is reported as 2.1. B3 was tested, and the “7.4 kd/ 6.0 kd” value was 1.7. With B4 the “7.4 kd/ 6.0 kd” value was 1. With B5 the “7.4 kd/ 6.0 kd” value was 3.2. For B6, the “7.4 kd/ 6.0 kd” value was 3.4. With B7 the “7.4 kd/ 6.0 kd” value was 0.2. For B8, the “7.4 kd/ 6.0 kd” value was 1.7.

The binders below were run against T1, hVISTA-ECD 6-His tag (assay: SPR, Ab on Protein A, hVISTA analyte, pH 6.9).
How it was run: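 Antibodies at 50 nM in PBST pH 7.4 were captured on a Protein A CM5 chip; an 8-point human VISTA titration (100 to 7.8 nM) in PBST at pH 7.4, 6.9, 6.45 or 6.0 was injected for 180 seconds at 30 µL/min. Kinetic constants came from 1:1 binding fits of sensorgrams.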
For B1, the Kd was 230 nM, the koff was 0.011 s⁻¹ and the kon was 48000 M⁻¹ s⁻¹. In the case of B2, the Kd is reported as 230 nM, the koff is reported as 0.0093 s⁻¹ and the kon is reported as 41000 M⁻¹ s⁻¹. For B3, the Kd was 790 nM, the koff was 0.014 s⁻¹ and the kon was 18000 M⁻¹ s⁻¹. B4 showed a Kd of 3.19 nM, a koff of 0.00133 s⁻¹ and a kon of 417000 M⁻¹ s⁻¹. Work on B5 yielded a Kd of 4800 nM, a koff of 0.034 s⁻¹ and a kon of 7100 M⁻¹ s⁻¹. In the case of B6, the Kd is reported as 220 nM, the koff is reported as 0.018 s⁻¹ and the kon is reported as 82000 M⁻¹ s⁻¹. B7 showed a Kd of 2.15 nM, a koff of 0.00139 s⁻¹ and a kon of 646000 M⁻¹ s⁻¹. B8 showed a Kd of 970 nM, a koff of 0.01 s⁻¹ and a kon of 11000 M⁻¹ s⁻¹.
